{"source": "paper PMC4987290", "about": "(The Journal of Cell Biology, 2016)", "key": {"Myo1E (myosin 1E)": {"target": "Myo1E (myosin 1E) (UniProt Q12965)", "test": "reciprocal co-IP of endogenous proteins, immunoblot", "details": "sites S202"}, "recombinant SH3P2": {"target": "T1, recombinant SH3P2 (human, UniProt Q92882 1-214)", "T1 sequence (looked up)": "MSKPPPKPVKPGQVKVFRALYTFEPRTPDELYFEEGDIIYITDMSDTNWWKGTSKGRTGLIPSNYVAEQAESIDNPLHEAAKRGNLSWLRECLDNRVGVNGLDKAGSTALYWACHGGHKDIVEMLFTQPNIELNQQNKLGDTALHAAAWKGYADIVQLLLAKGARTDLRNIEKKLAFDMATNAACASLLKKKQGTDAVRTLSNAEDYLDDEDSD", "test": "pull-down"}}, "data": [{"molecule": "SH3P2 (from UniProt Q92882) 10% FBS, 10 min", "values": [{"measurement": "other: % of lysate Myo1E associated with SH3P2", "setting": "Myo1E (myosin 1E); reference: serum-deprived cells", "value": "weaker; reference 78.4 ± 6.8"}]}, {"molecule": "SH3P2 (from UniProt Q92882) 10 µM PD184352, 4 h", "values": [{"measurement": "other: % of lysate Myo1E associated with SH3P2", "setting": "Myo1E (myosin 1E); reference: untreated cells", "value": "stronger; reference 6.1 ± 2.1"}]}, {"molecule": "GST-Myo1E(SH3) (domain or fragment, human, UniProt Q12965 1039-1108, looked up) AGGRPKPQPKPKPQVPQCKALYAYDAQDTDELSFNANDIIDIIKEDPSGWWTGRLRGKQGLFPNNYVTKI", "values": [{"measurement": "binding result", "setting": "recombinant SH3P2", "value": "binds"}]}]}
